Data from PMC10397247.
One block for each binder: values may come before it.

Tests used:
[1] = target: T1, APC6108-AA; experiment: two-hybrid library CCmax;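 note: natural log of median RNA to DNA barcode read ratio; higher means stronger binding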
T1 chain: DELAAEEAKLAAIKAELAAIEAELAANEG

[2] = target: T2, APC7099-AA; experiment: two-hybrid library CCmax; settings: mean of both orientations;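 note: natural log of median RNA to DNA barcode read ratio; higher means stronger binding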
T2 chain: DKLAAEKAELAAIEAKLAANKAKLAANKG

[3] = target: T3, APC8191-AA; experiment: two-hybrid library CCmax; settings: mean of both orientations;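 note: natural log of median RNA to DNA barcode read ratio; higher means stronger binding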
T3 chain: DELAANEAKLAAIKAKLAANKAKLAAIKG

[4] = target: T4, APC8910-AA; experiment: two-hybrid library CCmax; settings: mean of both orientations;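 note: natural log of median RNA to DNA barcode read ratio; higher means stronger binding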
T4 chain: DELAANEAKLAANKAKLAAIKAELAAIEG

[5] = target: T5, APC9096-AA; experiment: two-hybrid library CCmax; settings: mean of both orientations;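 note: natural log of median RNA to DNA barcode read ratio; higher means stronger binding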
T5 chain: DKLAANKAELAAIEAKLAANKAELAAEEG

[6] = target: T6, APC9319-AA; experiment: two-hybrid library CCmax; settings: mean of both orientations;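 note: natural log of median RNA to DNA barcode read ratio; higher means stronger binding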
T6 chain: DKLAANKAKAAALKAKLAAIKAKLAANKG

[7] = target: T7, 4H510-AA; experiment: two-hybrid library CCmax
T7 chain: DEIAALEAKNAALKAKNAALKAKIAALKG

[8] = target: T8, 4H775-AA; experiment: two-hybrid library CCmax; settings: mean of both orientations
T8 chain: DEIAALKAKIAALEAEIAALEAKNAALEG

[9] = target: T9, 4H816-AA; experiment: two-hybrid library CCmax; settings: mean of both orientations
T9 chain: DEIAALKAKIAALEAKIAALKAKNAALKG

[10] = target: T10, 4H87-AA; experiment: two-hybrid library CCmax; settings: mean of both orientations
T10 chain: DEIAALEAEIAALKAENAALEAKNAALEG

[11] = target: T11, 4H_APH; experiment: two-hybrid library CCmax; settings: mean of both orientations
T11 chain: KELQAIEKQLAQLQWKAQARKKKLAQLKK

[12] = target: T12, 4H_BCR; experiment: two-hybrid library CCmax; settings: mean of both orientations
T12 chain: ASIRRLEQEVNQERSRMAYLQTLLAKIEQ

[13] = target: 4H_GCN4; experiment: two-hybrid library CCmax; settings: mean of both orientations
[14] = target: GCN2_T; experiment: two-hybrid library CCmax
[15] = target: T13, O11-AA; experiment: two-hybrid library CCmax
T13 chain: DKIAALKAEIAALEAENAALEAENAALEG

[16] = target: T14, O13-AA; experiment: two-hybrid library CCmax; settings: mean of both orientations
T14 chain: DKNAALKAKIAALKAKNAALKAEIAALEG

[17] = target: T15, O14-AA; experiment: two-hybrid library CCmax; settings: mean of both orientations
T15 chain: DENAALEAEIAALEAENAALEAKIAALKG

[18] = target: T16, 4H741-bH; experiment: two-hybrid library CCNG1
T16 chain: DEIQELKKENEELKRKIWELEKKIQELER

[19] = target: T17, 4H741-bA; experiment: two-hybrid library CCNG1
T17 chain: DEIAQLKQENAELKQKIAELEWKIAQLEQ

[20] = target: T18, APC5531-AA; experiment: two-hybrid library CCmax
T18 chain: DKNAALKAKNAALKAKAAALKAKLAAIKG

[21] = target: T19, APC6088-AA; experiment: two-hybrid library CCmax; settings: mean of both orientations
T19 chain: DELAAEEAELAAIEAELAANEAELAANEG

[22] = target: T20, APC7524-AA; experiment: two-hybrid library CCmax; settings: mean of both orientations
T20 chain: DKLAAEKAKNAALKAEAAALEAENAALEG

[23] = target: T21, APC8401-AA; experiment: two-hybrid library CCmax; settings: mean of both orientations
T21 chain: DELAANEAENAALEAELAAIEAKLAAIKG

[24] = target: T22, APC8516-AA; experiment: two-hybrid library CCmax; settings: mean of both orientations
T22 chain: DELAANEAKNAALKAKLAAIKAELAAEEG

[25] = target: T23, APC9141-AA; experiment: two-hybrid library CCmax; settings: mean of both orientations
T23 chain: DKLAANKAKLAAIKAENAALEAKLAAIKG

[26] = target: T24, APC9182-AA; experiment: two-hybrid library CCmax; settings: mean of both orientations
T24 chain: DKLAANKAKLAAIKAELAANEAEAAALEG

[27] = target: T25, APC9291-AA; experiment: two-hybrid library CCmax; settings: mean of both orientations
T25 chain: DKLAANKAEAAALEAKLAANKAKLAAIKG

[28] = target: T26, APC9806-AA; experiment: two-hybrid library CCmax; settings: mean of both orientations
T26 chain: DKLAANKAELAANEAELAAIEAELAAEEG

[29] = target: T27, 4H3073-AA; experiment: two-hybrid library CCmax
T27 chain: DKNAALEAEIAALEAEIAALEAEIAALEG

[30] = target: T28, 4H3438-AA; experiment: two-hybrid library CCmax; settings: mean of both orientations
T28 chain: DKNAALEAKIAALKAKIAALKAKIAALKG

[31] = target: T29, 4H347-AA; experiment: two-hybrid library CCmax; settings: mean of both orientations
T29 chain: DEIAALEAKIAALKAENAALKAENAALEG

[32] = target: T30, 4H406-AA; experiment: two-hybrid library CCmax; settings: mean of both orientations
T30 chain: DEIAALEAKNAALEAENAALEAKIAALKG

[33] = target: T31, 4H452-AA; experiment: two-hybrid library CCmax; settings: mean of both orientations
T31 chain: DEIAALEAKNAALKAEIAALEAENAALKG

[34] = target: T32, 4H56-AA; experiment: two-hybrid library CCmax; settings: mean of both orientations
T32 chain: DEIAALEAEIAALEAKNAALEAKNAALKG

4H_GCN4, sequence (chain, as listed by the source): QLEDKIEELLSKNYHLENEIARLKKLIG

- interaction score [1]: -1.61
- interaction score [2]: -1.52
- interaction score [3]: -1.6
- interaction score [4]: -2.2
- interaction score [5]: -1.73
- interaction score [6]: -1.1
Binder: DELAAEEAKLAAIKAELAAIEAELAANEG [APC6108-AA]

- interaction score [20]: -1.63
- interaction score [21]: -1.44
- interaction score [22]: -1.84
- interaction score [23]: -1.77
- interaction score [24]: -1.6
- interaction score [25]: -1.97
- interaction score [26]: -1.96
- interaction score [27]: -1.72
- interaction score [28]: -1.95
Binder: DKNAALKAKNAALKAKAAALKAKLAAIKG [APC5531-AA]

- interaction score [29]: -0.701
- interaction score [30]: 1.51
- interaction score [31]: -1.33
- interaction score [32]: -1.6
- interaction score [33]: -1.22
- interaction score [34]: -1.28
- interaction score [11]: 0.197
- interaction score [12]: -1.37
- interaction score [13]: -0.626
- interaction score [14]: -1.05
Binder: DKNAALEAEIAALEAEIAALEAEIAALEG [4H3073-AA]

More lines, now with the values behind:

Binder: DEIAALEAKNAALKAKNAALKAKIAALKG [4H510-AA]
- interaction score [7]: -1.44
- interaction score [8]: -1.67
- interaction score [9]: -2
- interaction score [10]: -1.29
- interaction score [11]: -2.26
- interaction score [12]: -2.2
- interaction score [13]: -2.32
- interaction score [14]: -1.77
- interaction score [15]: 1.49
- interaction score [16]: -1.66
- interaction score [17]: 1.32

Binder: DEIQELKKENEELKRKIWELEKKIQELER [4H741-bH]
- interaction score [18]: 1.26

Binder: DEIAQLKQENAELKQKIAELEWKIAQLEQ [4H741-bA]
- interaction score [19]: 0.341
